The values below come from the supplement of paper PMC5998384.

Data set [1] deals with HeLa Kyoto. The data set can be described thus: solubility in G1/S (NP-40 vs SDS abundance) (log2 ratio); higher = more soluble. To be noted: cell cycle stage: G1/S.
Data set [2] concerns HeLa Kyoto. Description: thermal stability score vs G1/S (z-score of summed log2 fold changes over temperatures); higher = more thermally stable than in G1/S.
Data set [3] concerns HeLa Kyoto. Description: solubility change mitosis vs G1/S (difference of NP-40 vs SDS log2 ratios) (log2 ratio difference); higher = more soluble in mitosis.
Data set [4] has as its system HeLa Kyoto. Description: melting temperature (median over replicates), in situ; higher = more thermally stable.
The mark [5] stands for this setting: cell cycle stage: early G1 (4.5 h after nocodazole release).
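For melting temperature (median over replicates), in situ in this document: HeLa Kyoto cells synchronized by double thymidine or nocodazole block, proteins quantified by TMT10plex mass spectrometry, three independent biological replicates.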
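For solubility change mitosis vs G1/S (difference of NP-40 vs SDS log2 ratios) in this document: synchronized HeLa Kyoto cells (double thymidine block for G1/S, nocodazole release for mitosis), protein amounts in NP-40 versus SDS lysates quantified by mass spectrometry, three biological replicates.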
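For solubility in G1/S (NP-40 vs SDS abundance) in this document: HeLa Kyoto cells arrested at G1/S by double thymidine block, proteins quantified by TMT10plex mass spectrometry in mild NP-40 versus SDS extracts, three biological replicates.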
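For thermal stability score vs G1/S (z-score of summed log2 fold changes over temperatures) in this document: synchronized HeLa Kyoto cells, proteins quantified by TMT10plex mass spectrometry, three biological replicates, mitosis taken 0.5 h after nocodazole release, G1/S directly after double thymidine block.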

As to “MGKKYKNIVLLKGLEVINDYHFRMVKSLLSNDLKLNLKMREEYDKIQIADLMEEKFRGDAGLGKLIKIFEDIPTLEDLAETLKKEKLKVKGPALSRKRKKEVDATSPAPSTSSTVKTEGAEATPGAQKRKKSTKEKAGPKGSKVSEEQTQPPSPAGAGMSTAMGRSPSPKTSLSAPPNSSSTENPKTVAKCQVTPRRNVLQKRPVIVKVLSTTKPFEYETPEMEKKIMFHATVATQTQFFHVKVLNTSLKEKFNGKKIIIISDYLEYDSLLEVNEESTVSEAGPNQTFEVPNKIINRAKETLKIDILHKQASGNIVYGVFMLHKKTVNQKTTIYEIQDDRGKMDVVGTGQCHNIPCEEGDKLQLFCFRLRKKNQMSKLISEMHSFIQIKKKTNPRNNDPKSMKLPQEQRQLPYPSEASTTFPESHLRTPQMPPTTPSSSFFTKKSEDTISKMNDFMRMQILKEGSHFPGPFMTSIGPAESHPHTPQMPPSTPSSSFLTTKSEDTISKMNDFMRMQILKEGSHFPGPFMTSIGPAESHPHTPQMPPSTPSSSFLTTLKPRLKTEPEEVSIEDSAQSDLKEVMVLNATESFVYEPKEQKKMFHATVATENEVFRVKVFNIDLKEKFTPKKIIAIANYVCRNGFLEVYPFTLVADVNADRNMEIPKGLIRSASVTPKINQLCSQTKGSFVNGVFEVHKKNVRGEFTYYEIQDNTGKMEVVVHGRLTTINCEEGDKLKLTCFELAPKSGNTGELRSVIHSHIKVIKTRKNKKDILNPDSSMETSPDFFF [IFI16]”, the “solubility in G1/S (log2)” value in data set [1] is -0.293. Further, the figures for the thermal stability score in data set [2] (setting [5]) and in data set [2] (cell cycle stage: mitosis) were 3.09 and 5.43, respectively. Also, the “solubility change mitosis (log2)” value in data set [3] was 0.318. Besides, the melting temperature in data set [4] (cell cycle stage: G1/S) stood at 46.8 °C; in data set [4] (cell cycle stage: mitosis), 49.1 °C.
Turning to “MGKLRRRYNIKGRQQAGPGPSKGPPEPPPVQLELEDKDTLKGVDASNALVLPGKKKKKTKAPPLSKKEKKPLTKKEKKVLQKILEQKEKKSQRAEMLQKLSEVQASEAEMRLFYTTSKLGTGNRMYHTKEKADEVVAPGQEKISSLSGAHRKRRRWPSAEEEEEEEEESESELEEESELDEDPAAEPAEAGVGTTVAPLPPAPAPSSQPVPAGMTVPPPPAAAPPLPRALAKPAVFIPVNRSPEMQEERLKLPILSEEQVIMEAVAEHPIVIVCGETGSGKTTQVPQFLYEAGFSSEDSIIGVTEPRRVAAVAMSQRVAKEMNLSQRVVSYQIRYEGNVTEETRIKFMTDGVLLKEIQKDFLLLRYKVVIIDEAHERSVYTDILIGLLSRIVTLRAKRNLPLKLLIMSATLRVEDFTQNPRLFAKPPPVIKVESRQFPVTVHFNKRTPLEDYSGECFRKVCKIHRMLPAGGILVFLTGQAEVHALCRRLRKAFPPSRARPQEKDDDQKDSVEEMRKFKKSRARAKKARAEVLPQINLDHYSVLPAGEGDEDREAEVDEEEGALDSDLDLDLGDGGQDGGEQPDASLPLHVLPLYSLLAPEKQAQVFKPPPEGTRLCVVATNVAETSLTIPGIKYVVDCGKVKKRYYDRVTGVSSFRVTWVSQASADQRAGRAGRTEPGHCYRLYSSAVFGDFEQFPPPEITRRPVEDLILQMKALNVEKVINFPFPTPPSVEALLAAEELLIALGALQPPQKAERVKQLQENRLSCPITALGRTMATFPVAPRYAKMLALSRQHGCLPYAITIVASMTVRELFEELDRPAASDEELTRLKSKRARVAQMKRTWAGQGASLKLGDLMVLLGAVGACEYASCTPQFCEANGLRYKAMMEIRRLRGQLTTAVNAVCPEAELFVDPKMQPPTESQVTYLRQIVTAGLGDHLARRVQSEEMLEDKWRNAYKTPLLDDPVFIHPSSVLFKELPEFVVYQEIVETTKMYMKGVSSVEVQWIPALLPSYCQFDKPLEEPAPTYCPERGRVLCHRASVFYRVGWPLPAIEVDFPEGIDRYKHFARFLLEGQVFRKLASYRSCLLSSPGTMLKTWARLQPRTESLLRALVAEKADCHEALLAAWKKNPKYLLAEYCEWLPQAMHPDIEKAWPPTTVH [DHX37]”, the “solubility in G1/S (log2)” value in data set [1] is -1. Moreover, the thermal stability score was 0.32 in data set [2] (setting [5]) and 0.922 in data set [2] (cell cycle stage: mitosis). The “solubility change mitosis (log2)” value in data set [3] stood at 0.635. The melting temperature in data set [4] (cell cycle stage: G1/S) was 50.3 °C.
For “MGKRQHQKDKMYITCAEYTHFYGGKKPDLPQTNFRRLPFDHCSLSLQPFVYPVCTPDGIVFDLLNIVPWLKKYGTNPSNGEKLDGRSLIKLNFSKNSEGKYHCPVLFTVFTNNTHIVAVRTTGNVYAYEAVEQLNIKAKNFRDLLTDEPFSRQDIITLQDPTNLDKFNVSNFYHVKNNMKIIDPDEEKAKQDPSYYLKNTNAETRETLQELYKEFKGDEILAATMKAPEKKKVDKLNAAHYSTGKVSASFTSTAMVPETTHEAAAIDEDVLRYQFVKKKGYVRLHTNKGDLNLELHCDLTPKTCENFIRLCKKHYYDGTIFHRSIRNFVIQGGDPTGTGTGGESYWGKPFKDEFRPNLSHTGRGILSMANSGPNSNRSQFFITFRSCAYLDKKHTIFGRVVGGFDVLTAMENVESDPKTDRPKEEIRIDATTVFVDPYEEADAQIAQERKTQLKVAPETKVKSSQPQAGSQGPQTFRQGVGKYINPAATKRAAEEEPSTSATVPMSKKKPSRGFGDFSSW [PPIL2]”, in data set [1], the “solubility in G1/S (log2)” value was 0.00272. Further, the thermal stability score in data set [2] (setting [5]) is 0.984; in data set [2] (cell cycle stage: mitosis) it was 1.06. For the same sequence, in data set [3], the “solubility change mitosis (log2)” value is -0.019. For the same sequence, the melting temperature was 47.5 °C in data set [4] (cell cycle stage: G1/S) and 48.4 °C in data set [4] (cell cycle stage: mitosis).
With “MGKSESQMDITDINTPKPKKKQRWTPLEISLSVLVLLLTIIAVTMIALYATYDDGICKSSDCIKSAARLIQNMDATTEPCTDFFKYACGGWLKRNVIPETSSRYGNFDILRDELEVVLKDVLQEPKTEDIVAVQKAKALYRSCINESAIDSRGGEPLLKLLPDIYGWPVATENWEQKYGASWTAEKAIAQLNSKYGKKVLINLFVGTDDKNSVNHVIHIDQPRLGLPSRDYYECTGIYKEACTAYVDFMISVARLIRQEERLPIDENQLALEMNKVMELEKEIANATAKPEDRNDPMLLYNKMTLAQIQNNFSLEINGKPFSWLNFTNEIMSTVNISITNEEDVVVYAPEYLTKLKPILTKYSARDLQNLMSWRFIMDLVSSLSRTYKESRNAFRKALYGTTSETATWRRCANYVNGNMENAVGRLYVEAAFAGESKHVVEDLIAQIREVFIQTLDDLTWMDAETKKRAEEKALAIKERIGYPDDIVSNDNKLNNEYLELNYKEDEYFENIIQNLKFSQSKQLKKLREKVDKDEWISGAAVVNAFYSSGRNQIVFPAGILQPPFFSAQQSNSLNYGGIGMVIGHEITHGFDDNGRNFNKDGDLVDWWTQQSASNFKEQSQCMVYQYGNFSWDLAGGQHLNGINTLGENIADNGGLGQAYRAYQNYIKKNGEEKLLPGLDLNHKQLFFLNFAQVWCGTYRPEYAVNSIKTDVHSPGNFRIIGTLQNSAEFSEAFHCRKNSYMNPEKKCRVW [MME]”, in data set [1], the “solubility in G1/S (log2)” value was -0.0691. Further, the thermal stability score in data set [2] (setting [5]) was -0.835; in data set [2] (cell cycle stage: mitosis), -0.832. Further, the “solubility change mitosis (log2)” value in data set [3] is -0.0403. The melting temperature came to 53 °C in data set [4] (cell cycle stage: G1/S) and 55.9 °C in data set [4] (cell cycle stage: mitosis).
